{"source": "patent US20240254209A1", "about": "(published 2024)", "binders": {"B1": {"name": "human IgE mAb 38B7 (antibody, V domains shown)", "VH": "QVQLVESGGGVVQPGRSLRLSCVGSGFTFRRDAKYWVRQAPGKGLEWVAAISHDGGEEDYAESVKGRFTISRDNSRETVYLEMNSLRPEDTAVYYCATTRSGWYFDYWGQGALVTVSS", "VL": "EIVLTQSPATLSLSPGARATLSCRASQSVDTYLAWYQQRRGQSPRLLIYDASKRATGIPARFSGSGSGTDFTLTISSLEPEDFAVYYCQQRNNWRTWTFGQGTKVEIN", "notes": "human IgE from hybridoma"}}, "key": {"[1]": {"molecular_target": "T1, Ara h 2 peptide PYSPSQDPYSPSPYD", "T1 construct": "peptide of the Luminex peptide array", "T1 peptide": "PYSPSQDPYSPSPYD", "assay": "Luminex peptide array", "text": "(§1) Peptide microarray. The inventor used peptide arrays to help determine the approximate locations of the antigenic sites targeted by his human IgE mAbs. In collaboration with Dr. Hugh Sampson at Mount Sinai he tested Ara h 2-specific IgE mAbs using a Luminex peptide array technology (Shreffler et al., 2004). […] Several of the Ara h 2 site CR-A-specific IgE mAbs, however, bound strongly to peptide […] at the C-terminus of the allergen protein. Ara h 2 site SP-B-specific antibody 38B7, which competes with all Ara h 2 site CR-B antibodies, bound to two peptides […] and […]. […] In that paper the authors used the fusion protein to define an immunodominant population of IgE antibodies in the sera of peanut allergic subjects, which is the population the inventor defines here as site CR-B, the immunodominant antigenic site of Ara h 2. This region has also been described previously as being an immunodominant target of the Ara h 2 and Ara h 6 IgE antibody response seen in human sera (Chen et al., 2016). These peptides make up the disordered loop between helices 2 and 3 of Ara h 2, the region that differs between Ara h 2.01 and Ara h 2.02 isoforms, not present in the crystal structure due to its high degree of flexibility. […]"}, "[2]": {"molecular_target": "T2, Ara h 2 peptide DSYERDPYSPSQDPY", "T2 construct": "peptide of the Luminex peptide array", "T2 peptide": "DSYERDPYSPSQDPY", "assay": "Luminex peptide array", "text": "as §1"}, "peanut allergen Ara h 3": {"molecular_target": "T3, peanut allergen Ara h 3 (peanut (Arachis hypogaea))", "T3 construct": "also called F424", "assay": "ImmunoCAP, hybridoma supernatant", "procedure": "(§2) Verification and validation of IgE mAbs peanut allergen specificity. Following the unbiased generation of IgE secreting human hybridomas from peanut allergic subject PBMCs, peanut protein binding and peanut allergen protein specificity was determined. Hybridoma culture supernatant was initially used for this validation. […] Using the available ImmunoCAP components (purified allergen proteins: Ara h 1, F422; Ara h 2, F423; Ara h 3, F424; Ara h 8 F352; Ara h 9 F427), the exact allergen specificity was determined for those which bound Ara h 1, 2, and 3.\n(§3) Hybridoma cell culture supernatant was used for initial identification of allergen specificity using ImmunoCAP analysis. Peanut reactivity was first determined using peanut ImmunoCAP. Component analysis identified IgE antibodies specific for Ara h 1, 2, and 3. All antibodies not identified in this table were determined to bind Ara h 6."}, "peanut allergen Ara h 9": {"molecular_target": "T4, peanut allergen Ara h 9 (peanut (Arachis hypogaea))", "T4 construct": "ImmunoCAP component F427; also called F427", "assay": "ImmunoCAP, hybridoma supernatant", "procedure": "as §2, §3"}, "peanut allergen Ara h 8": {"molecular_target": "T5, peanut allergen Ara h 8 (peanut (Arachis hypogaea))", "T5 construct": "ImmunoCAP component F352; also called F352", "assay": "ImmunoCAP, hybridoma supernatant", "procedure": "as §2, §3"}}, "data": [{"binder": "B1", "values": [{"measurement": "binding result", "setting": "[1]", "result": "binds"}, {"measurement": "binding result", "setting": "[2]", "result": "binds"}, {"measurement": "ImmunoCAP kUA/L", "setting": "peanut allergen Ara h 3", "result": 0.23, "unit": "kUA/L"}, {"measurement": "ImmunoCAP kUA/L", "setting": "peanut allergen Ara h 9", "result": 0.11, "unit": "kUA/L"}, {"measurement": "ImmunoCAP kUA/L", "setting": "peanut allergen Ara h 8", "result": 0.15, "unit": "kUA/L"}]}]}
